Test results from US4851572A, “γ-L-glutamyl-4-nitroanilide derivatives and process for determining γ-GTP activity using the same” (Wako Pure Chemical Industries, Ltd., priority 1987, dated 1989).

System: T1, N[C@@H](CCC(=O)Nc1ccc([N+](=O)[O-])c(CO)c1)C(=O)O
T1 construct: As samples, there were used human serum; from tissue; host or cells: human serum
Assay: Km value, γ-GTP from human serum
Type: biochemical
Details: other: human serum γ-GTP
From the text: In Table 3 are shown the results of measuring, by a conventional method, Km values of γ-L-glutamyl-3-hydroxymethyl-4-nitroanilide, which is a compound of this invention, for each of γ-GTPs derived from human serum, porcine kidney and bovine kidney.
In Table 3 are also shown, for reference, Km values of γ-L-glutamyl-3-carboxy-4-nitroanilide and γ-L-glutamyl-p-nitroanilide reported by Leslie M. Shaw (Clinical Chemistry, 23, 79 (1977)).

Chain of γ-GTP (human serum) (Homo sapiens) (chain, as listed by the source): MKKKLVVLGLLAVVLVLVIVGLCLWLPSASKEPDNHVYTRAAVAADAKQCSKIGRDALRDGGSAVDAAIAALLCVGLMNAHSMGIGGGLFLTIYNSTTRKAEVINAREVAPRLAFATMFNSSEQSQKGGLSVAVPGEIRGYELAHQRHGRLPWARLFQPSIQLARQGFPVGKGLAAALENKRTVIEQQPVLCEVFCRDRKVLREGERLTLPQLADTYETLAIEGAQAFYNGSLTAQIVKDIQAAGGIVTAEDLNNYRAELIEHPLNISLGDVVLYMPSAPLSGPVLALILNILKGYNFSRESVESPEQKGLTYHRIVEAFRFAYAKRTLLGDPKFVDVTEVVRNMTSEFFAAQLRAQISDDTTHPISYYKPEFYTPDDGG
Chain of γ-GTP (human serum) (Homo sapiens) (chain, as listed by the source): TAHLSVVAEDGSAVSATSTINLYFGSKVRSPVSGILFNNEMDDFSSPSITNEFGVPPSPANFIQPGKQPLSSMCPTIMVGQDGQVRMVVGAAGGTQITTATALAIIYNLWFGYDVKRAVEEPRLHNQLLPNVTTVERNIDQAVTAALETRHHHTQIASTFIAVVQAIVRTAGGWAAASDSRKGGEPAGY

γ-GTP (human serum) (Homo sapiens)
Km: 940 µM
